The text below walks through data of article doi:10.1101/498865.

Common to all, as to assay: other fluorescence titration
Experiment [1] concerns the target CyPet-Myo1^IQ12-YPet FRET reporter protein (S. pombe).
Experiment [2] addresses CyPet-Myo1^IQ1-YPet FRET reporter protein (S. pombe).
In experiment [3] the target is CyPet-Myo1^IQ12-YPet FRET reporter protein (S. pombe). This is another data set of the same source.
The target of experiment [4] is CyPet-Myo1^IQ12-S742D-YPet FRET reporter protein (S. pombe).
For experiment [5], the target named is CyPet-Myo1^IQ1-YPet FRET reporter protein (S. pombe). This is another data set of the same source.

Usually Kd stands for the constant that tells how readily two partners part at equilibrium. A higher Kd goes with a looser complex. As usually defined, the stoichiometry N is a count of units in the complex or per binding partner.

Where two headings read alike, the source gives them in different places.

In the case of “Cam1 (fission yeast calmodulin), amino-terminally acetylated (from UniProt P05933 1-150) (natural protein)”, in experiment [1], the KD of the first binding event is below 100 nM and the KD of the second binding event came out at 680 nM. Moreover, in experiment [2], the Kd is below 100 nM.

B1: Cam2 (fission yeast calmodulin-like protein) (natural protein)
chain: MPASKEQTDEMKEAFVLYDIDKDGLIPTSHVGSVLRSLGINVTDAELAKLSNELGDAIDEKKFMSFVSNKLRETESEEEYIKAFRVFDKDNSGYIETAKFADYMKTLGEKLSDNEVQLMVQEADPTNSGSFDYYDFVQRIMAK
In experiment [3], B1 returned a KD of the phase with 70% of the signal change of 1100 nM. Besides, the figures for the stoichiometry N in experiment [3] and in experiment [4] were 2 and 1, respectively. The results for the Kd in experiment [4] and in experiment [5] were 250 nM and 400 nM, respectively.
